“And” between values parts separate entries of the source, which are not always exact repeats. Equal values may be shown once. One block for each substance: values may come before it.
Assays:
[1] = biological target: p53 TAD peptide 1-57 Hepta-(Ala) (human) (UniProt P04637); experiment: fluorescence polarisation
[2] = biological target: p53 TAD peptide 10-57 Hepta-(Asp) (human) (UniProt P04637); experiment: fluorescence polarisation
Kix = conditions: ref Zor et al., 2002, cited from earlier work
CBP Kix = CBP Kix (UniProt Q92793); conditions: cited from earlier work
Chain of UniProt Q92793 (Q92793 587-666): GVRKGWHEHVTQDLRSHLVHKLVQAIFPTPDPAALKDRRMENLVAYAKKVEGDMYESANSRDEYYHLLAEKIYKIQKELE

Chain of CREB (P16220 whole entry): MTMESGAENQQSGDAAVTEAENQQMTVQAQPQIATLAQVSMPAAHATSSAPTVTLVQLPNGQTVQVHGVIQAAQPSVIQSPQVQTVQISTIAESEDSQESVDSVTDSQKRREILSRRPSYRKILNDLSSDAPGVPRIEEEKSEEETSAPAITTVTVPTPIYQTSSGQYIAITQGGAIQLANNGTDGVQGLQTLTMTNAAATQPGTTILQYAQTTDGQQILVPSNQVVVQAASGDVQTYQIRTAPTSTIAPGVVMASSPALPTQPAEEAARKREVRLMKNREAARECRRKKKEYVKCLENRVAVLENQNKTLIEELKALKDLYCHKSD

Kd [1]: 0.56 µM
Kd [2]: 0.038 µM
Substance: p300 Taz1 domain (from UniProt Q09472 1-2414) (domain or fragment)

Substance: CREB: transcription factor CREB, phosphorylated on Ser133, binding Kix (literature)
Kd (Kix; read-out: KD, Kix, CREB phosphorylated at Ser133): 0.7 µM
fold tighter Kix binding upon phosphorylation of Ser133 (Kix): 150 fold and ~ 150 fold

Substance: CREB (from UniProt P16220)
Kd (CBP Kix): 0.7 µM
